Holding throughout (test): cell-based or functional assay
Test [1] addresses AA-SR-120 (SR-120), Fas ECD-CD28 TM-CD3z ICD.
The target of test [2] is AA-SR-105 (SR-105), Fas ECD-Fas TM-CD3z ICD.
Test [3] addresses AA-SR-115 (SR-115), BTLA ECD-CD28 TM-CD3z ICD.
Test [4] deals with AA-SR-100 (SR-100), BTLA ECD-BTLA TM-CD3z ICD.
The target of test [5] is AA-SR-112 (SR-112), TACTILE ECD-TACTILE TM-CD3z ICD.
Test [6] deals with AA-SR-127 (SR-127), TACTILE ECD-CD28 TM-CD3z ICD.
Test [7] addresses AA-SR-102 (SR-102), CD200R ECD-CD200R TM-CD3z ICD.
Test [8] has as its target AA-SR-117 (SR-117), CD200R ECD-CD28 TM-CD3z ICD.
Test [9] concerns the target AA-SR-104 (SR-104), CTLA4 ECD-CTLA4 TM-CD3z ICD.
Test [10] addresses AA-SR-119 (SR-119), CTLA4 ECD-CD28 TM-CD3z ICD.

Sequence of AA-SR-112 (SR-112), TACTILE ECD-TACTILE TM-CD3z ICD (chain, as listed by the source limits assumed, form in doubt): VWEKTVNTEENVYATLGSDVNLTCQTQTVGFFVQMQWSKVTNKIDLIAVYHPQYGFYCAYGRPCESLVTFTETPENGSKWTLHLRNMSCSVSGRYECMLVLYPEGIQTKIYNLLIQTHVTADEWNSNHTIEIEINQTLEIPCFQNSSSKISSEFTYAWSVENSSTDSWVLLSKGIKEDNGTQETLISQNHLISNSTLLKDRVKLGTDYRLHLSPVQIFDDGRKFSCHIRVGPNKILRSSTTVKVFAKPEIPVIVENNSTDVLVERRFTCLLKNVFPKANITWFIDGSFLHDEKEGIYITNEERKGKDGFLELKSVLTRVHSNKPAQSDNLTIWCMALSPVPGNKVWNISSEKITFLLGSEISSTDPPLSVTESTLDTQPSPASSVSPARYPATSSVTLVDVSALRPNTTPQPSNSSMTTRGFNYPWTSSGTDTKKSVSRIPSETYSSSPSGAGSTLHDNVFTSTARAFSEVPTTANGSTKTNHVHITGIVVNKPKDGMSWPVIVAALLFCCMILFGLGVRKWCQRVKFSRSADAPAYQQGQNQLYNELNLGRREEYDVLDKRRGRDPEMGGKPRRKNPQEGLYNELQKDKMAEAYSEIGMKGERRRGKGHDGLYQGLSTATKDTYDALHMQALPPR
Sequence of AA-SR-105 (SR-105), Fas ECD-Fas TM-CD3z ICD (chain, as listed by the source limits assumed, form in doubt): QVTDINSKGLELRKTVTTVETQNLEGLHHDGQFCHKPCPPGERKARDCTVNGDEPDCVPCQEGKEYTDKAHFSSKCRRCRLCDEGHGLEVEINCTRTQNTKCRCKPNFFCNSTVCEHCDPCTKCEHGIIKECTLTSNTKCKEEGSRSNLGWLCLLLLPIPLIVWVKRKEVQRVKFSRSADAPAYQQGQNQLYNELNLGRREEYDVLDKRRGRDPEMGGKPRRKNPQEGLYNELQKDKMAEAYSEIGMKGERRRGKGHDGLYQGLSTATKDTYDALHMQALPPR
Sequence of AA-SR-102 (SR-102), CD200R ECD-CD200R TM-CD3z ICD (chain, as listed by the source limits assumed, form in doubt): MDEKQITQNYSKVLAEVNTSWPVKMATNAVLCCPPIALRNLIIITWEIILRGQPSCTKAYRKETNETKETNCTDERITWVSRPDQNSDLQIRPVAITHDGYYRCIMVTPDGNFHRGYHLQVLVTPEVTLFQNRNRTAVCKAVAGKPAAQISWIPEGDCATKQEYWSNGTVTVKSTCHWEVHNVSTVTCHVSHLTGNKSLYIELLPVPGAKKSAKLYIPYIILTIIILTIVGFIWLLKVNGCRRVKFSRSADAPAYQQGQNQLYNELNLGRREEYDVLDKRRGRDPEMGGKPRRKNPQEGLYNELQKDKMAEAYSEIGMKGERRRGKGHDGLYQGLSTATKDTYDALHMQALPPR
Sequence of AA-SR-104 (SR-104), CTLA4 ECD-CTLA4 TM-CD3z ICD (chain, as listed by the source limits assumed, form in doubt): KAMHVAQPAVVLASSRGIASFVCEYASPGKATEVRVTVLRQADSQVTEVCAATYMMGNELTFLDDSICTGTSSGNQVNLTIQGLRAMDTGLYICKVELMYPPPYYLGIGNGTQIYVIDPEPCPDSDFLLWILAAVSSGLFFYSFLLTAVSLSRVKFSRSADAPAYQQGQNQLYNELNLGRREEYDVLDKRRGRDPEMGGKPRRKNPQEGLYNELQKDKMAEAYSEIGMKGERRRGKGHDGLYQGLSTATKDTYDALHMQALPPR
Sequence of AA-SR-119 (SR-119), CTLA4 ECD-CD28 TM-CD3z ICD (chain, as listed by the source limits assumed, form in doubt): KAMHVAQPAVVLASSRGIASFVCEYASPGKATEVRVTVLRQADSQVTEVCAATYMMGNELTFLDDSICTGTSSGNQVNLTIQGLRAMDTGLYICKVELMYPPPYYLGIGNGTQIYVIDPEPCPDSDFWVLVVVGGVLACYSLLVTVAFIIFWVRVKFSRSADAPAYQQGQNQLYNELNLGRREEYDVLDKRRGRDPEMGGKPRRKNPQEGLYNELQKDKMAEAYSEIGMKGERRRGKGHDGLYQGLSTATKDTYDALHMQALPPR
Sequence of AA-SR-100 (SR-100), BTLA ECD-BTLA TM-CD3z ICD (chain, as listed by the source limits assumed, form in doubt): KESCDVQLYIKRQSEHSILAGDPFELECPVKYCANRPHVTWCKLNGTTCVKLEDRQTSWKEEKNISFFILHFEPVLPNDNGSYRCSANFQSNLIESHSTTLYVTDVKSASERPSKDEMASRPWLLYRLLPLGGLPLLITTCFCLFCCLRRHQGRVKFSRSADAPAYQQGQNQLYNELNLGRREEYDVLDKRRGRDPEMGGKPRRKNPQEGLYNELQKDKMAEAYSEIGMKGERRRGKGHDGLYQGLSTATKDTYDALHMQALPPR
Sequence of FasL recombinant protein (P48023 134-281 limits assumed): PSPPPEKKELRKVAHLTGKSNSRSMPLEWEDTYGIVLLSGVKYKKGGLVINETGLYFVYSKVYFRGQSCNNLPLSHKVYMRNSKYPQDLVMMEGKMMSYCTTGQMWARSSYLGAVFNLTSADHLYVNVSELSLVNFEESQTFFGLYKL
Sequence of AA-SR-120 (SR-120), Fas ECD-CD28 TM-CD3z ICD (chain, as listed by the source limits assumed, form in doubt): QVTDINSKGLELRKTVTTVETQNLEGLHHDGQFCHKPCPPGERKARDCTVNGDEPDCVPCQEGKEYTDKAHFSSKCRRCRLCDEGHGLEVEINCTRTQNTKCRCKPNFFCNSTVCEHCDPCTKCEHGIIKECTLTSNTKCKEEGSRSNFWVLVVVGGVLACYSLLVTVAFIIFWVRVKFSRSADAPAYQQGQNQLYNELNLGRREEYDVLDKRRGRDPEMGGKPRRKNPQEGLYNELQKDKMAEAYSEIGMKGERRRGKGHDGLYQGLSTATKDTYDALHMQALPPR
Sequence of AA-SR-127 (SR-127), TACTILE ECD-CD28 TM-CD3z ICD (chain, as listed by the source limits assumed, form in doubt): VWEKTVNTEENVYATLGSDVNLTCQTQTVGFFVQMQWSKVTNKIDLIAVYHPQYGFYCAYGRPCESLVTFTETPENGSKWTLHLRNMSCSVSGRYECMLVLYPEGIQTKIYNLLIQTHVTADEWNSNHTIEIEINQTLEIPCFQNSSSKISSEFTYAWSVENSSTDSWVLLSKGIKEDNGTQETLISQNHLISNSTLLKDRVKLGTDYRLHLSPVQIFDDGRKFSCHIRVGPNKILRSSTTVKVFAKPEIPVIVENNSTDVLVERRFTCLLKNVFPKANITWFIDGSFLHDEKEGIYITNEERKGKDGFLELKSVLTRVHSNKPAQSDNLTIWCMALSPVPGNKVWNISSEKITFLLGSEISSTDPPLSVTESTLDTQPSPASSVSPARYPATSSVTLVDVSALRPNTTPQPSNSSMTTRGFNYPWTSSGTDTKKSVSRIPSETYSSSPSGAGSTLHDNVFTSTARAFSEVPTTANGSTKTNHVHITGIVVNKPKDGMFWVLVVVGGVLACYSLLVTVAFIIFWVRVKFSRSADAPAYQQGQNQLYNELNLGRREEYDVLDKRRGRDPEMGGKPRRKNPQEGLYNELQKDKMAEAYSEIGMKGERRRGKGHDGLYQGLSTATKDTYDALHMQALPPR
Sequence of AA-SR-117 (SR-117), CD200R ECD-CD28 TM-CD3z ICD (chain, as listed by the source limits assumed, form in doubt): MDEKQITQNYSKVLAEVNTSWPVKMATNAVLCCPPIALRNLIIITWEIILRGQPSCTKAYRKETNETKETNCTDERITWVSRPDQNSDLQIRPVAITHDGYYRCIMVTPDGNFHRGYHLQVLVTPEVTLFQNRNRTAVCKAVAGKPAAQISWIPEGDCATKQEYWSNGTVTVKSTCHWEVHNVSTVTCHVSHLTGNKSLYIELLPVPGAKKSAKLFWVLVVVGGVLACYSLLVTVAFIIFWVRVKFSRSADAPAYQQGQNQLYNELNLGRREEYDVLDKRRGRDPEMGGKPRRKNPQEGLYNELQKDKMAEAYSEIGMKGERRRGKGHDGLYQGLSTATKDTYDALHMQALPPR
Sequence of AA-SR-115 (SR-115), BTLA ECD-CD28 TM-CD3z ICD (chain, as listed by the source limits assumed, form in doubt): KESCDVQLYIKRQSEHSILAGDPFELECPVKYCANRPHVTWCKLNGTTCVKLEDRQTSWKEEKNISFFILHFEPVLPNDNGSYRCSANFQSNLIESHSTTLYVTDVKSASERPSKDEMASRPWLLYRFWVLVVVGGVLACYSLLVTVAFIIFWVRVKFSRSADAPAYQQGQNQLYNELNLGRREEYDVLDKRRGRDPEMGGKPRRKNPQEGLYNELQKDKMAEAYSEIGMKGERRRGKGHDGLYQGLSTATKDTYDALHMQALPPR

Regarding “FasL recombinant protein (from UniProt P48023 134-281) (ligand)”, in test [1], the CD69, fold-change of MFI over no stimulation, High (10 ug/mL) amounted to 162 fold; the CD69, fold-change of MFI over no stimulation, Low (0.4 ug/mL) worked out at 40.5 fold; the CD69, fold-change of MFI over no stimulation, Med. (2 ug/mL) is 129 fold; the GFP, fold-change of MFI over no stimulation, High (10 ug/mL) was 10.1 fold. In addition, in test [1], the GFP, fold-change of MFI over no stimulation, Low (0.4 ug/mL) amounted to 2.4 fold and the GFP, fold-change of MFI over no stimulation, Med. (2 ug/mL) came out at 11.2 fold. Moreover, in test [2], the CD69, fold-change of MFI over no stimulation, High (10 ug/mL) came out at 70.2 fold; the CD69, fold-change of MFI over no stimulation, Low (0.4 ug/mL) is 8.4 fold; the CD69, fold-change of MFI over no stimulation, Med. (2 ug/mL) amounted to 35.7 fold; the GFP, fold-change of MFI over no stimulation, High (10 ug/mL) came out at 7.3 fold. Moreover, in test [2], the GFP, fold-change of MFI over no stimulation, Low (0.4 ug/mL) worked out at 1 fold and the GFP, fold-change of MFI over no stimulation, Med. (2 ug/mL) was found to be 4.6 fold.

In the case of anti-BTLA mAb clone MIH26 (antibody), in test [3], the CD69, fold-change of MFI over no stimulation, High (10 ug/mL) came to 9.2 fold; the CD69, fold-change of MFI over no stimulation, Low (0.4 ug/mL) was determined as 10.8 fold; the CD69, fold-change of MFI over no stimulation, Med. (2 ug/mL) came to 14.1 fold; the GFP, fold-change of MFI over no stimulation, High (10 ug/mL) turned out to be 3.5 fold. For the same substance, in test [3], the GFP, fold-change of MFI over no stimulation, Low (0.4 ug/mL) worked out at 5.1 fold and the GFP, fold-change of MFI over no stimulation, Med. (2 ug/mL) amounted to 6.9 fold. Besides, in test [4], the CD69, fold-change of MFI over no stimulation, High (10 ug/mL) stood at 125 fold; the CD69, fold-change of MFI over no stimulation, Low (0.4 ug/mL) amounted to 62.7 fold; the CD69, fold-change of MFI over no stimulation, Med. (2 ug/mL) was 124 fold; the GFP, fold-change of MFI over no stimulation, High (10 ug/mL) stood at 13 fold. Further, in test [4], the GFP, fold-change of MFI over no stimulation, Low (0.4 ug/mL) turned out to be 6.1 fold and the GFP, fold-change of MFI over no stimulation, Med. (2 ug/mL) came to 7.5 fold.

Consider anti-CD96 mAb clone NK92.39 (antibody), for which, in test [5], the CD69, fold-change of MFI over no stimulation, High (10 ug/mL) was found to be 3.9 fold; the CD69, fold-change of MFI over no stimulation, Low (0.4 ug/mL) amounted to 3.3 fold; the CD69, fold-change of MFI over no stimulation, Med. (2 ug/mL) is 1 fold; the GFP, fold-change of MFI over no stimulation, High (10 ug/mL) came out at 1.2 fold. Further, in test [5], the GFP, fold-change of MFI over no stimulation, Low (0.4 ug/mL) is 1 fold and the GFP, fold-change of MFI over no stimulation, Med. (2 ug/mL) is 0.9 fold. Besides, in test [6], the CD69, fold-change of MFI over no stimulation, High (10 ug/mL) was 2 fold; the CD69, fold-change of MFI over no stimulation, Low (0.4 ug/mL) was determined as 1.1 fold; the CD69, fold-change of MFI over no stimulation, Med. (2 ug/mL) was found to be 1.1 fold; the GFP, fold-change of MFI over no stimulation, High (10 ug/mL) was 1 fold. For the same substance, in test [6], the GFP, fold-change of MFI over no stimulation, Low (0.4 ug/mL) came to 1 fold and the GFP, fold-change of MFI over no stimulation, Med. (2 ug/mL) was 0.8 fold.

anti-CD200R mAb clone OX-108 (antibody): in test [7], the CD69, fold-change of MFI over no stimulation, High (10 ug/mL) came to 29.2 fold; the CD69, fold-change of MFI over no stimulation, Low (0.4 ug/mL) worked out at 1.3 fold; the CD69, fold-change of MFI over no stimulation, Med. (2 ug/mL) is 4.9 fold; the GFP, fold-change of MFI over no stimulation, High (10 ug/mL) was found to be 6.8 fold. Further, in test [7], the GFP, fold-change of MFI over no stimulation, Low (0.4 ug/mL) was found to be 0.8 fold and the GFP, fold-change of MFI over no stimulation, Med. (2 ug/mL) was determined as 1.4 fold. In [8], the CD69, fold-change of MFI over no stimulation, High (10 ug/mL) was determined as 8.7 fold; the CD69, fold-change of MFI over no stimulation, Low (0.4 ug/mL) was 0.9 fold; the CD69, fold-change of MFI over no stimulation, Med. (2 ug/mL) came to 1.1 fold; the GFP, fold-change of MFI over no stimulation, High (10 ug/mL) is 5.9 fold. Besides, in [8], the GFP, fold-change of MFI over no stimulation, Low (0.4 ug/mL) amounted to 1.1 fold and the GFP, fold-change of MFI over no stimulation, Med. (2 ug/mL) was determined as 0.9 fold.

For the substance “anti-CTLA-4 mAb clone 1003705 (antibody)”, in [9], the CD69, fold-change of MFI over no stimulation, High (10 ug/mL) was 7.2 fold; the CD69, fold-change of MFI over no stimulation, Low (0.4 ug/mL) came to 3.1 fold; the CD69, fold-change of MFI over no stimulation, Med. (2 ug/mL) is 5.6 fold; the GFP, fold-change of MFI over no stimulation, High (10 ug/mL) turned out to be 4.3 fold. Further, in test [9], the GFP, fold-change of MFI over no stimulation, Low (0.4 ug/mL) came out at 2.2 fold and the GFP, fold-change of MFI over no stimulation, Med. (2 ug/mL) is 3.8 fold. In [10], the CD69, fold-change of MFI over no stimulation, High (10 ug/mL) came to 6.2 fold; the CD69, fold-change of MFI over no stimulation, Low (0.4 ug/mL) worked out at 2.7 fold; the CD69, fold-change of MFI over no stimulation, Med. (2 ug/mL) was determined as 4.5 fold; the GFP, fold-change of MFI over no stimulation, High (10 ug/mL) is 5.9 fold. Moreover, in [10], the GFP, fold-change of MFI over no stimulation, Low (0.4 ug/mL) stood at 2.6 fold and the GFP, fold-change of MFI over no stimulation, Med. (2 ug/mL) was 4.6 fold.

Values taken from US20260055162A1.
